According to the MegaScale stability set (Tsuboyama et al. 2023):

B1: EEHEE_rd3_0130 (parent)
chain: TKIIVNGKTFTAPTEEEAQKIAEKLAKKAGLTVHKKNGTFELK

Variants of: B1
Assay: folding stability dG (cDNA display proteolysis); higher = more stable
Conditions: PBS, room temperature
In the case of TKIIVNGKTFTAPTEEEAQKIAEKWAKKAGLTVHKKNGTFELK, the “folding stability dG” value is reported as 1.48 kcal/mol. For TKIIVNGKTFTAPTEEEAQKIAEKVAKKAGLTVHKKNGTFELK, the “folding stability dG” value was 0.245 kcal/mol. With TKIIVNGKTFTAPTEEEAQKIAEKTAKKAGLTVHKKNGTFELK the “folding stability dG” value was -0.134 kcal/mol. In the case of TKIIVNGKTFTAPTEEEAQKIAEKHAKKAGLTVHKKNGTFELK, the “folding stability dG” value is reported as -0.294 kcal/mol. For TKIIVNGKTFTAPTEEEAQKIAEKMAKKAGLTVHKKNGTFELK, the “folding stability dG” value was 0.784 kcal/mol. In the case of TKIIVNGKTFTAPTEEEAQKIAEKQAKKAGLTVHKKNGTFELK, the “folding stability dG” value is reported as -0.482 kcal/mol. In the case of TKIIVNGKTFTAPTEEEAQKIAEKYAKKAGLTVHKKNGTFELK, the “folding stability dG” value is reported as 0.649 kcal/mol. In the case of TKIIVNGKTFTAPTEEEAQKIAEKRAKKAGLTVHKKNGTFELK, the “folding stability dG” value is reported as -0.578 kcal/mol. For TKIIVNGKTFTAPTEEEAQKIAEKCAKKAGLTVHKKNGTFELK, the “folding stability dG” value was 1.13 kcal/mol. With TKIIVNGKTFTAPTEEEAQWIAEKLAKKAGLTVHKKNGTFELK the “folding stability dG” value was 0.804 kcal/mol. In the case of TKIIVNGKTFTAPTEEEAQYIAEKLAKKAGLTVHKKNGTFELK, the “folding stability dG” value is reported as 0.745 kcal/mol. In the case of TKIIVNGKTFTAPTEEEAQKYAEKLAKKAGLTVHKKNGTFELK, the “folding stability dG” value is reported as 0.645 kcal/mol. In the case of TKIIVNGKTFTAPTEEEAQKRAEKLAKKAGLTVHKKNGTFELK, the “folding stability dG” value is reported as 0.152 kcal/mol. With TKIIVNGKTFTAPTEEEAQKWAEKLAKKAGLTVHKKNGTFELK the “folding stability dG” value was 1.3 kcal/mol. With TKIIVNGKTFTAPTEEEAQKPAEKLAKKAGLTVHKKNGTFELK the “folding stability dG” value was -0.76 kcal/mol. For TKIIVNGKTFTAPTEEEAQKDAEKLAKKAGLTVHKKNGTFELK, the “folding stability dG” value was -0.719 kcal/mol. With TKIIVNGKTFTAPTEEEAQKEAEKLAKKAGLTVHKKNGTFELK the “folding stability dG” value was -0.19 kcal/mol. With TKIIVNGKTFTAPTEEEAQKAAEKLAKKAGLTVHKKNGTFELK the “folding stability dG” value was -0.095 kcal/mol. With TKIIVNGKTFTAPTEEEAQKNAEKLAKKAGLTVHKKNGTFELK the “folding stability dG” value was -0.725 kcal/mol. With TKIIVNGKTFTAPTEEEAQKFAEKLAKKAGLTVHKKNGTFELK the “folding stability dG” value was 1.01 kcal/mol. With TKIIVNGKTFTAPTEEEAQKKAEKLAKKAGLTVHKKNGTFELK the “folding stability dG” value was 0.005 kcal/mol. For TKIIVNGKTFTAPTEEEAQKHAEKLAKKAGLTVHKKNGTFELK, the “folding stability dG” value was -0.132 kcal/mol. In the case of TKIIVNGKTFTAPTEEEAQKQAEKLAKKAGLTVHKKNGTFELK, the “folding stability dG” value is reported as -0.043 kcal/mol. In the case of TKIIVNGKTFTAPTEEEAQKVAEKLAKKAGLTVHKKNGTFELK, the “folding stability dG” value is reported as 0.46 kcal/mol. In the case of TKIIVNGKTFTAPTEEEAQKLAEKLAKKAGLTVHKKNGTFELK, the “folding stability dG” value is reported as 0.99 kcal/mol. In the case of TKIIVNGKTFTAPTEEEAQKCAEKLAKKAGLTVHKKNGTFELK, the “folding stability dG” value is reported as 1.51 kcal/mol. In the case of TKIIVNGKTFTAPTEEEAQKSAEKLAKKAGLTVHKKNGTFELK, the “folding stability dG” value is reported as -0.174 kcal/mol. For TKIIVNGKTFTAPTEEEAQKTAEKLAKKAGLTVHKKNGTFELK, the “folding stability dG” value was -0.08 kcal/mol. For TKIIVNGKTFTAPTEEEAQKMAEKLAKKAGLTVHKKNGTFELK, the “folding stability dG” value was 0.647 kcal/mol. For TKIIVNGKTFTAPTEEEAQKIGEKLAKKAGLTVHKKNGTFELK, the “folding stability dG” value was -0.83 kcal/mol. With TKIIVNGKTFTAPTEEEAQKIHEKLAKKAGLTVHKKNGTFELK the “folding stability dG” value was -0.772 kcal/mol. With TKIIVNGKTFTAPTEEEAQKIIEKLAKKAGLTVHKKNGTFELK the “folding stability dG” value was 0.601 kcal/mol. In the case of TKIIVNGKTFTAPTEEEAQKIREKLAKKAGLTVHKKNGTFELK, the “folding stability dG” value is reported as -0.631 kcal/mol. For TKIIVNGKTFTAPTEEEAQKIYEKLAKKAGLTVHKKNGTFELK, the “folding stability dG” value was -0.256 kcal/mol. For TKIIVNGKTFTAPTEEEAQKIWEKLAKKAGLTVHKKNGTFELK, the “folding stability dG” value was 0.017 kcal/mol. In the case of TKIIVNGKTFTAPTEEEAQKILEKLAKKAGLTVHKKNGTFELK, the “folding stability dG” value is reported as 0.301 kcal/mol. With TKIIVNGKTFTAPTEEEAQKIFEKLAKKAGLTVHKKNGTFELK the “folding stability dG” value was 0.168 kcal/mol. With TKIIVNGKTFTAPTEEEAQKISEKLAKKAGLTVHKKNGTFELK the “folding stability dG” value was 0.153 kcal/mol. For TKIIVNGKTFTAPTEEEAQKITEKLAKKAGLTVHKKNGTFELK, the “folding stability dG” value was -0.186 kcal/mol. In the case of TKIIVNGKTFTAPTEEEAQKIMEKLAKKAGLTVHKKNGTFELK, the “folding stability dG” value is reported as 0.143 kcal/mol. For TKIIVNGKTFTAPTEEEAQKIVEKLAKKAGLTVHKKNGTFELK, the “folding stability dG” value was 0.71 kcal/mol. For TKIIVNGKTFTAPTEEEAQKIQEKLAKKAGLTVHKKNGTFELK, the “folding stability dG” value was -0.657 kcal/mol. With TKIIVNGKTFTAPTEEEAQKIEEKLAKKAGLTVHKKNGTFELK the “folding stability dG” value was -0.91 kcal/mol. In the case of TKIIVNGKTFTAPTEEEAQKICEKLAKKAGLTVHKKNGTFELK, the “folding stability dG” value is reported as 0.374 kcal/mol. With TKIIVNGKTFTAPTEEEAQKIAEKLAGKAGLTVHKKNGTFELK the “folding stability dG” value was 0.228 kcal/mol. In the case of TKIIVNGKTFTAPTEEEAQKIAEKLANKAGLTVHKKNGTFELK, the “folding stability dG” value is reported as 0.413 kcal/mol. For TKIIVNGKTFTAPTEEEAQKIAEKLAIKAGLTVHKKNGTFELK, the “folding stability dG” value was 0.597 kcal/mol. For TKIIVNGKTFTAPTEEEAQKIAEKLAMKAGLTVHKKNGTFELK, the “folding stability dG” value was 0.725 kcal/mol. In the case of TKIIVNGKTFTAPTEEEAQKIAEKLARKAGLTVHKKNGTFELK, the “folding stability dG” value is reported as 0.991 kcal/mol. In the case of TKIIVNGKTFTAPTEEEAQKIAEKLAPKAGLTVHKKNGTFELK, the “folding stability dG” value is reported as -0.957 kcal/mol. With TKIIVNGKTFTAPTEEEAQKIAEKLALKAGLTVHKKNGTFELK the “folding stability dG” value was 0.834 kcal/mol. For TKIIVNGKTFTAPTEEEAQKIAEKLAQKAGLTVHKKNGTFELK, the “folding stability dG” value was 0.76 kcal/mol. With TKIIVNGKTFTAPTEEEAQKIAEKLASKAGLTVHKKNGTFELK the “folding stability dG” value was 0.587 kcal/mol. In the case of TKIIVNGKTFTAPTEEEAQKIAEKLACKAGLTVHKKNGTFELK, the “folding stability dG” value is reported as 1.03 kcal/mol. For TKIIVNGKTFTAPTEEEAQKIAEKLADKAGLTVHKKNGTFELK, the “folding stability dG” value was 0.266 kcal/mol. In the case of TKIIVNGKTFTAPTEEEAQKIAEKLAFKAGLTVHKKNGTFELK, the “folding stability dG” value is reported as 0.736 kcal/mol. With TKIIVNGKTFTAPTEEEAQKIAEKLAAKAGLTVHKKNGTFELK the “folding stability dG” value was 0.812 kcal/mol. In the case of TKIIVNGKTFTAPTEEEAQKIAEKLAHKAGLTVHKKNGTFELK, the “folding stability dG” value is reported as 0.537 kcal/mol. In the case of TKIIVNGKTFTAPTEEEAQKIAEKLAEKAGLTVHKKNGTFELK, the “folding stability dG” value is reported as 0.532 kcal/mol.
